Values joined by “and” are separate entries in the source; they are usually repeats but may differ in a detail not shown here. Equal values may be shown once.

The mark [1] stands for this setting: Homo sapiens, pH 7.4, Thermal, CD, phosphate 10 mM, NaCl 10 mM, transition: 2, structure 2NLU.
Where [2] appears, read: Homo sapiens, pH 7.5, Thermal, DSF, Hepes 25mM, NaCl 150mM, structure 6DLO.
The mark [3] stands for this setting: Homo sapiens, pH 7.5, Thermal, CD, HEPES 0.8mM, NaCl 6mM, transition: 2, structure 6EW2.
[4] abbreviates: Cyprinus carpio, pH 7.5, Thermal, CD, Sodium phosphate 10 mM, CaCl2 0.00001 M.
[5] abbreviates: Escherichia coli (strain K12), pH 7, 30 °C, Urea, CD, Potassium phosphate 10 mM.
Setting [6] is: Escherichia coli (strain K12), pH 7.5, Thermal, CD, Potassium phosphate 10 mM, reversible: yes, structure 1EZA.
[7] abbreviates: Escherichia coli (strain K12), pH 7.5, Thermal, DSC, Potassium phosphate 10 mM, reversible: yes, structure 1EZA.
[8] abbreviates: Bos taurus, pH 8, Thermal, DSC, Tris-HCl 10 mM, NaCl 200 mM, reversible: yes.

Tropomyosin alpha-1 chain wild type, P04268, sequence (P04268 whole entry): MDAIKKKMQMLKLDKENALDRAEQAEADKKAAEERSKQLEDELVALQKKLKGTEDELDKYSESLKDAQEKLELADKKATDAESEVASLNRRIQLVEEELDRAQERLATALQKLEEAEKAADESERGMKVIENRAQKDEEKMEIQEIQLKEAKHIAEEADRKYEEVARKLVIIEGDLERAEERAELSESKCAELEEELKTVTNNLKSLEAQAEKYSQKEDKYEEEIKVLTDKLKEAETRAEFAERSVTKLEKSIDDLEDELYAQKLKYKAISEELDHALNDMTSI
Superoxide dismutase [Cu-Zn] wild type, P00442, sequence (P00442 whole entry): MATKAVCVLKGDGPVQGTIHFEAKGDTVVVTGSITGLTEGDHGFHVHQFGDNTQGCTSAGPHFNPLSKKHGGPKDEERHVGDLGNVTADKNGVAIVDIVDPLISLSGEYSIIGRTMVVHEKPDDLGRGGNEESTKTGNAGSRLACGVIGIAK
Parvalbumin beta wild type, P02618, sequence (P02618 whole entry): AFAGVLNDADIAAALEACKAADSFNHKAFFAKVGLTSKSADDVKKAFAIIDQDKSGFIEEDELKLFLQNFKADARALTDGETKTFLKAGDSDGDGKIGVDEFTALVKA
Hepatoma-derived growth factor P24A, P51858, sequence (P51858 whole entry P24A): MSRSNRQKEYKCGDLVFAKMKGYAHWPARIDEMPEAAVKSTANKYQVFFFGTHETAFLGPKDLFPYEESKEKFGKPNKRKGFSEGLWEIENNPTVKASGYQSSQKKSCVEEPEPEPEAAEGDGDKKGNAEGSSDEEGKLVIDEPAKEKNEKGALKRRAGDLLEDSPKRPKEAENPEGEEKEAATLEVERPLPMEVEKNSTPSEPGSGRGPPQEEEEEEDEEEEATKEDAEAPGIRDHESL
Hepatoma-derived growth factor wild type, P51858, sequence (P51858 whole entry): as the sequence (P51858 whole entry P24A) above, with A24P counted along it

As for “Hepatoma-derived growth factor P24A, P51858”, under setting [1], the Tm (usually the temperature at the midpoint of the melting transition) is 40 °C and the “change of melting temperature, mutant - wild type (higher = more stable)” value (“change of melting temperature, mutant” for short) is -7 °C.

For the substance “Hepatoma-derived growth factor wild type, P51858”, under “Homo sapiens, pH 7.4, Thermal, CD, phosphate 10 mM, NaCl 10 mM, transition: 2”, the Tm stood at 47 °C.

For “Leucine-rich repeat serine/threonine-protein kinase 2, Q5S007 G2385R”, under setting [2], the melting temperature (Tm) amounted to 31.3 °C and the “change of melting temperature, mutant” value was found to be 0.33 °C.

Take “Myelin P2 protein (from UniProt P02689) I52T”: under setting [3], the “change of melting temperature, mutant” value is -13 °C and the “ddG of mutation (higher = less stable)” value was 5.17 kcal/mol.

Turning to “Myelin P2 protein (from UniProt P02689) T51P”, under setting [3], the “change of melting temperature, mutant” value is -24 °C and the “ddG of mutation (higher = less stable)” value turned out to be 1.51 kcal/mol.

For the substance Parvalbumin beta wild type, P02618, the Tm runs as follows: under setting [4], 90 °C; (Cyprinus carpio, pH 7.5, Thermal, CD, Sodium phosphate 10 mM, EDTA 5 mM) 32 °C; (Cyprinus carpio, pH 7.5, Thermal, CD, Sodium phosphate 10 mM, NaCl 2 M) 55 °C. For the same substance, the “heat capacity change of unfolding” value under setting [4] came out at 1.1 kcal/mol/K. Under setting [4], the “unfolding enthalpy (calorimetric)” value was determined as 120 kcal/mol.

Take “Phosphocarrier protein HPr wild type, P0AA04”: under setting [5], the denaturant m value amounted to 1.06 kcal/mol/M and the “denaturant midpoint (higher = more stable)” value (“denaturant midpoint” below) was found to be 4.34 M. For the same substance, where the note is “Escherichia coli (strain K12), pH 7, 30 °C, Urea, CD, Potassium phosphate 50 mM, reversible: yes”, the unfolding free energy was 4.95 kcal/mol. Also, the Tm (Escherichia coli (strain K12), pH 7, Thermal, CD, Potassium phosphate 10 mM) was 30 °C.

Regarding “Phosphoenolpyruvate-protein phosphotransferase H189A, P08839”, under setting [6], the melting temperature (Tm) was found to be 54 °C and the “unfolding enthalpy (van 't Hoff)” value is 118 kcal/mol. Under setting [7], the Tm was determined as 55.8 °C and the “unfolding enthalpy (calorimetric)” value turned out to be 143 kcal/mol.

As to “Phosphoenolpyruvate-protein phosphotransferase H189E, P08839”, under setting [6], the melting temperature (Tm) worked out at 52.1 °C and the “unfolding enthalpy (van 't Hoff)” value worked out at 128 kcal/mol. Besides, under setting [7], the Tm amounted to 53.7 °C and the “unfolding enthalpy (calorimetric)” value worked out at 135 kcal/mol.

“QQHADPICNKPCKTHDDCSGAWFCQACWNSARTCGPYVG [Metallocarboxypeptidase inhibitor wild type]”: the “denaturant midpoint” value (Solanum tuberosum, pH 8.4, 23 °C, GdnHCl, Fluorescence, Tris-HCl 0.1 M, whole UniProt chain shown) came out at 1.45 M and the “denaturant midpoint” value (Solanum tuberosum, pH 8.4, 23 °C, GdnSCN, Fluorescence, Tris-HCl 0.1 M, whole UniProt chain shown) was 0.7 M.

With “Superoxide dismutase [Cu-Zn] wild type, P00442”, the Tm (Bos taurus, pH 7.8, Thermal, DSC, Potassium phosphate 100 mM, reversible: no (32%)) is 88.3 °C. For the same substance, under setting [8], the midpoint of thermal melting (Tm) was found to be 59.9 °C and the “unfolding enthalpy (calorimetric)” value worked out at 152 kcal/mol.

Turning to “Tropomyosin alpha-1 chain wild type, P04268”, the unfolding free energy (Gallus gallus, pH 7, 39 °C, Thermal, CD, Sodium phosphate 10 mM, NaCl 0.5 M, reversible: yes) was 9 kcal/mol and 12.4 kcal/mol and 9.6 kcal/mol. The “unfolding enthalpy (van 't Hoff)” value (Gallus gallus, pH 7, Thermal, CD, Sodium phosphate 10 mM, NaCl 0.5 M, reversible: yes) was 162 kcal/mol and 225 kcal/mol and 98 kcal/mol.

The values are drawn from FireProtDB.
